Target: polypeptide N52 simulating a target sequence (SARS-CoV-2, N-terminal acetyl (Ac); C-terminal amide (NH2))

B1: lipopeptide IPB24 (peptide)
peptide: SVVNIQKEIDRLNEVAKNLNESLIDLQELGKYEQYIKK
modifications: N-terminal acetyl (Ac); flexible linker PEG4 (from Fmoc-NH-PEG4-CH2CH2COOH) between the antiviral polypeptide sequence and the C-terminal K; cholesteryl hemisuccinate on the C-terminal K; C-terminal amide (NH2)
  Tm of the complex: 90 °C

From US20240425618A1 (YOUCARE PHARMACEUTICAL GROUP, published 2024)
